How the values were obtained:
Assay in all cases: malachite green phosphate release, Lineweaver-Burk
Type in all cases: biochemical, Entamoeba histolytica
Conditions in all cases: 100 mM MOPS pH 6.0, 37°C, 40 min, di-C8 lipid
[1] = tested on: CCCCCCCC(=O)OC[C@H](COP(=O)(O)O[C@H]1[C@H](O)[C@@H](OP(=O)(O)O)[C@H](OP(=O)(O)O)[C@@H](OP(=O)(O)O)[C@H]1O)OC(=O)CCCCCCC
Source text: (§1) malachite green phosphate release, Lineweaver-Burk on EhPTEN1

[2] = tested on: CCCCCCCC(=O)OC[C@H](COP(=O)(O)O[C@H]1[C@H](O)[C@@H](O)[C@H](OP(=O)(O)O)[C@@H](OP(=O)(O)O)[C@H]1O)OC(=O)CCCCCCC
Source text: as §1

[3] = tested on: CCCCCCCC(=O)OC[C@H](COP(=O)(O)O[C@@H]1[C@H](O)[C@H](OP(=O)(O)O)[C@@H](O)[C@H](OP(=O)(O)O)[C@H]1O)OC(=O)CCCCCCC
Source text: as §1

EhPTEN1 (Entamoeba histolytica HM-1:IMSS)
Km [1]: 92.5 ± 4.72 µM
Vmax [1]: 0.0169 µmol/min/mg
kcat [1]: 0.00517 ± 0.0005 s⁻¹
Km [2]: 292 ± 18.8 µM
Vmax [2]: 0.00602 µmol/min/mg
kcat [2]: 0.00183 ± 0.000333 s⁻¹
Km [3]: 161 ± 20.1 µM
Vmax [3]: 0.0084 µmol/min/mg
kcat [3]: 0.0025 ± 0.000167 s⁻¹
